Test results reported in patent US20260275319A1 (MAX PLANCK GESELLSCHAFT ZUR F RDERUNG DER WISSENSCHAFTEN E V, published 2026).
Where a chain is given by its changes, count along the chain named. Numbers in names are those of the source. Primed or numbered codes have the meaning given here. Ends that are not written are not given here. FITC′ = fluorescein isothiocyanate label; Ahx = NCCCCCC(=O)O

T1: MtrB of M. mazei (subunit of the MtrA-MtrH complex), from whole cell extract (Methanosarcina mazei)
T1 sequence (P80655 whole entry, looked up): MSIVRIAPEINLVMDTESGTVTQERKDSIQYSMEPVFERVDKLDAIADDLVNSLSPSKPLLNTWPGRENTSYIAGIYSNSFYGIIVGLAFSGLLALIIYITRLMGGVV

T2: MtrE of M. mazei (subunit of the MtrA-MtrH complex), from whole cell extract (Methanosarcina mazei)
T2 sequence (P80651 whole entry, looked up): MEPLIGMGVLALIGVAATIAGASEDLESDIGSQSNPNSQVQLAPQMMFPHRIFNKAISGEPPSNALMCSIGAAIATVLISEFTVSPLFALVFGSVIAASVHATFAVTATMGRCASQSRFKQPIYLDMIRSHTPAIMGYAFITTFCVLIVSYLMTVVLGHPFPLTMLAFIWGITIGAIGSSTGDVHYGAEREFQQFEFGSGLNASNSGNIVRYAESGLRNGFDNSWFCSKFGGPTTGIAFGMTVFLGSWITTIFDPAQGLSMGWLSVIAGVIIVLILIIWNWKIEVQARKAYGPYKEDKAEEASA

T3: MtrG of M. mazei (subunit of the MtrA-MtrH complex), from whole cell extract (Methanosarcina mazei)
T3 sequence (P80656 whole entry, looked up): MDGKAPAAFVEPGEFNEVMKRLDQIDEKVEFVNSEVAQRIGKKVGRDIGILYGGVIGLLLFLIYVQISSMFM

T4: MtrH of M. mazei (subunit of the MtrA-MtrH complex), from whole cell extract (Methanosarcina mazei)
T4 sequence (P80650 1-316, looked up): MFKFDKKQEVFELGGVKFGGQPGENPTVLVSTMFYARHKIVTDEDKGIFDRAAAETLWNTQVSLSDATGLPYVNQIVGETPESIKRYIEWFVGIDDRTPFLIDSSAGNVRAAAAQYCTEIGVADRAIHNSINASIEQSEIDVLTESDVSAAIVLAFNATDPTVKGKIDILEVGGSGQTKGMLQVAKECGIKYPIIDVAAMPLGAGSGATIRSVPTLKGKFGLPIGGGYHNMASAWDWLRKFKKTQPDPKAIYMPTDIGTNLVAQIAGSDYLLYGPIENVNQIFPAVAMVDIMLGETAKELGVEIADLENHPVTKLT

T5: M. mazei Ub-(5)KDPGA(10) with N-terminal His-tag
T5 chain: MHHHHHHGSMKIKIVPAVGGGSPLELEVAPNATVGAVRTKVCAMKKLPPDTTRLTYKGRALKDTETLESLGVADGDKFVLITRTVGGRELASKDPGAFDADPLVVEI

T6: M. jannaschii MtrA^Δ174-245 with N-terminal His6-tag (Methanocaldococcus jannaschii, UniProt Q58261 1-169)
T6 sequence: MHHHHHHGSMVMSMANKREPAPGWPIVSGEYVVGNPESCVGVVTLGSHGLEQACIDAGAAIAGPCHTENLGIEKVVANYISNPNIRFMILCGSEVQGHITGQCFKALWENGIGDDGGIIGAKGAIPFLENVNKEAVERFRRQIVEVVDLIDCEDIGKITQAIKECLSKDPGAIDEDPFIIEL

T7: M. jannaschii Adriase with C-terminal His-tag (Methanocaldococcus jannaschii, UniProt Q57968 2-293)
T7 construct: Active enzyme; also called unmodified Adriase; MJ_0548
T7 sequence: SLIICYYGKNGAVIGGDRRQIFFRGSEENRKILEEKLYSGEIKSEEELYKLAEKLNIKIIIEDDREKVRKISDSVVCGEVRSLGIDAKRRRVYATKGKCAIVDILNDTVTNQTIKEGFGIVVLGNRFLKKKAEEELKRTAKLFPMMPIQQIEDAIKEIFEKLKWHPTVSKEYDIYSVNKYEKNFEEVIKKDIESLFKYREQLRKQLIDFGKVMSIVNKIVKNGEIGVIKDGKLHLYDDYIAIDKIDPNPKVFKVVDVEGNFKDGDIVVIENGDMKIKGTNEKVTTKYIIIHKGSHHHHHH

B1: M. mazei Adriase with C-terminal Strep-tag (enzyme)
chain: TLVIAFIGKNGAVMAGDMREITFEGEKPDREKLEKELYSGSIVTDEEMQKKAEEFGVKITVADCKEKVSERNGVLVGEVSSAEGGVVKKRRLYASAGNFAIAELINTEMTLTSQGKGSNFIAFGNEFTKQVANKCFKDNWTKKSNLQDAVKILILCMETVARKTASVSKQFMIVQTASNADVLKVVEKDRNCGSWSHPQFEK
notes: also called MM_2909; Archaeal Peptide Recombinase
B2: M. jannaschii Adriase without NTN, with C-terminal His-tag (enzyme)
chain: MEQLRKQLIDFGKVMSIVNKIVKNGEIGVIKDGKLHLYDDYIAIDKIDPNPKVFKVVDVEGNFKDGDIVVIENGDMKIKGTNEKVTTKYIIIHKGSHHHHHH
notes: also called Adriase^ΔNTN
B3: M. mazei Adriase with C-terminal His-tag (enzyme)
chain: TLVIAFIGKNGAVMAGDMREITFEGEKPDREKLEKELYSGSIVTDEEMQKKAEEFGVKITVADCKEKVSERNGVLVGEVSSAEGGVVKKRRLYASAGNFAIAELINTEMTLTSQGKGSNFIAFGNEFTKQVANKCFKDNWTKKSNLQDAVKILILCMETVARKTASVSKQFMIVQTASNADVLKVVEKDRNCGSHHHHHH
notes: Active form without start-methionine; also called M. mazei Adriase-His6; MM_2909
B4: M. jannaschii Adriase S1A mutant with C-terminal His-tag (enzyme)
chain: T7 sequence with S1A
notes: The entry is the S1A mutant itself
B5: (5)KDPGA(10) peptide, M. jannaschii MtrA-derived, C-terminal FITC (peptide)
peptide: KECLSKDPGAIDEDPFIIEL-{K(FITC)}
notes: Synthetic peptide (Genscript); also called (5)KDPGA(10F)
B6: (0)KDPGA(10) peptide, M. jannaschii MtrA-derived, C-terminal FITC (peptide)
peptide: KDPGAIDEDPFIIEL-{K(FITC)}
notes: Synthetic peptide (Genscript)
B7: (15)KDPGA(10) peptide, M. jannaschii MtrA-derived, N-terminal FITC-Ahx (peptide)
peptide: {FITC′-Ahx}-EDIGKITQAIKECLSKDPGAIDEDPFIIEL
notes: Synthetic peptide (Genscript); also called (F15)KDPGA(10)
B8: M. jannaschii Ub-KDPGA(10) (other)
chain: MHHHHHHGSMKIKIVPAVGGGSPLELEVAPNATVGAVRTKVCAMKKLPPDTTRLTYKGRALKDTETLESLGVADGDKFVLITRTVGGCGEKDPGAIDEDPFIIEL
notes: also called Ubiquitin fused to KDPGA(10)
B9: (10)KDPGA(10) peptide, M. jannaschii MtrA-derived, C-terminal FITC (peptide)
peptide: ITQAIKECLSKDPGAIDEDPFIIEL-{K(FITC)}
B10: M. jannaschii MtrA^Δ194-245 (enzyme)
chain: MHHHHHHGSMVMSMANKREPAPGWPIVSGEYVVGNPESCVGVVTLGSHGLEQACIDAGAAIAGPCHTENLGIEKVVANYISNPNIRFMILCGSEVQGHITGQCFKALWENGIGDDGGIIGAKGAIPFLENVNKEAVERFRRQIVEVVDLIDCEDIGKITQAIKECLSKDPGAIDEDPFIIELEGGKGGGEEEEGVIKPITPE
notes: For MST it was labelled with NT-647-NHS; also called MJ_0851

What was measured:
[1] = molecular target: T1, MtrB of M. mazei (subunit of the …); experiment: pulldown from M. mazei whole cell extract with Strep-tagged Adriase, LC-MS/MS (Experiment 2.1)
[2] = molecular target: T2, MtrE of M. mazei (subunit of the …); experiment: as above
[3] = molecular target: T3, MtrG of M. mazei (subunit of the …); experiment: as above
[4] = molecular target: T4, MtrH of M. mazei (subunit of the …); experiment: as above
[5] = molecular target: B10; experiment: size-exclusion chromatography with light scattering (SEC-MALS) of the 1:1 molar mixture
[6] = molecular target: T5, M. mazei Ub-(5)KDPGA(10) with …; experiment: SDS-PAGE time course of Adriase with Ub-(5)KDPGA(10), band of the covalent conjugate
BSA = molecular target: T8, BSA (UniProt P02769 25-607); experiment: pulldown on Ni-NTA beads with His6-tagged Adriase, SDS-PAGE of flow-through, washes and eluate
T8 construct: also called control protein BSA
T8 sequence (P02769 25-607 limits assumed): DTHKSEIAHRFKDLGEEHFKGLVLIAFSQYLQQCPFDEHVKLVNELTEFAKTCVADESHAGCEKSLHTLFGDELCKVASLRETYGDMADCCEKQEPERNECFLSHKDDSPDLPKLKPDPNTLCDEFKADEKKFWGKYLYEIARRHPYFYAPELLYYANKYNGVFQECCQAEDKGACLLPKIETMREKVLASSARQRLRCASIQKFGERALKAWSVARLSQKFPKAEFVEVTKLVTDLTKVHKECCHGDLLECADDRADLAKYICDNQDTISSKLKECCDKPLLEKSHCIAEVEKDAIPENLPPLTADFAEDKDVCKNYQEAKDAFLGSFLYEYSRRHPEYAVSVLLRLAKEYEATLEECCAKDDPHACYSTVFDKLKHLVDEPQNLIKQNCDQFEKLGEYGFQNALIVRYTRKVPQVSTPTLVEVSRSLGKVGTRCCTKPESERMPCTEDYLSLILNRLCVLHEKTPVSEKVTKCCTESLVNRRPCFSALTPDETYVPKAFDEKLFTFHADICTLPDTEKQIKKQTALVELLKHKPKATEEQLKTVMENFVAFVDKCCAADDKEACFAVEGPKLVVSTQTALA

[7] = molecular target: B9; experiment: microscale thermophoresis (MST), fitted curve, peptide (10)KDPGA(10)
[8] = molecular target: B7; experiment: microscale thermophoresis (MST), fitted curve, peptide (15)KDPGA(10)
[9] = molecular target: B10; experiment: microscale thermophoresis (MST), fitted curve
[10] = molecular target: B6; experiment: microscale thermophoresis (MST), fitted curve, peptide (0)KDPGA(10)
[11] = molecular target: B5; experiment: microscale thermophoresis (MST), fitted curve, peptide (5)KDPGA(10)
[12] = molecular target: T6, M. jannaschii MtrA^Δ174-245 with …; experiment: microscale thermophoresis (MST), fitted curve, MtrA^Δ174-245
[13] = molecular target: B4; experiment: microscale thermophoresis (MST); table row (5)KDPGA(10)
[14] = molecular target: B4; experiment: microscale thermophoresis (MST); table row (0)KDPGA(10)
[15] = molecular target: B4; experiment: microscale thermophoresis (MST); table row (15)KDPGA(10)
[16] = molecular target: T7, M. jannaschii Adriase with C-terminal …; experiment: SDS-PAGE time course of the reaction in the presence of MtrA, band of the covalent conjugate
[17] = molecular target: B4; experiment: microscale thermophoresis (MST); table row (10)KDPGA(10)
[18] = molecular target: B4; experiment: microscale thermophoresis (MST), three measurements; table row MtrA

## B1
[1]
  Intensity (mass spectrometry): 1.4e+06 arbitrary units
[2]
  Intensity (mass spectrometry): 2.1e+06 arbitrary units
[3]
  Intensity (mass spectrometry): 860000 arbitrary units
[4]
  Intensity (mass spectrometry): 6e+07 arbitrary units

## B2
[5]
  binding result: no binding

## B3
[6]
  binding result: binds
BSA
  binding result: no binding

## B4
[7]
  EC50 (read off the curve): ~200 nM
[8]
  EC50 (read off the curve): ~80 nM
[9]
  EC50 (read off the curve): ~200 nM
[10]
  EC50 (read off the curve): ~400 nM
[11]
  EC50 (read off the curve): ~100 nM
[12]
  EC50 (read off the curve): ~600 nM

## B5
[13]
  Kd: 121 nM

## B6
[14]
  Kd: 363 nM

## B7
[15]
  Kd: 74 nM

## B8
[16]
  binding result: binds

## B9
[17]
  Kd: 168 nM

## B10
[18]
  Kd: 129 nM
